Results taken from patent US20120321668A1.

How the values were obtained:
[1] = target: CD3 molecules of the CD3/TCR complex on mouse T cells (mouse) (UniProt A2KF29); test: confocal fluorescence microscopy, NBD-peptide and labelled anti-CD3 antibody on mouse T cells
[2] = target: TLR2 TMD peptide labelled with Rho (TLR2-Rho); test: FRET, gp41 TMD-NBD constant at 0.4 µM and TLR2-Rho added at 0.025-0.8 µM, 100 µM LUVs

gp41 TMD conjugated to NBD (gp41 transmembrane domain peptide, NBD-labelled)
co-localization percentage [1]: 58.8%
percent of energy transfer (FRET) [2]: > 60%
